Experimental data published in patent US20130216547A1 (Regeneron, published 2013).
Residue numbers refer to the chain shown, from its start. Names may count otherwise.

B1: H2M6486N (antibody, V domains shown)
VH: EVQLVESGGGLVKPGGSLRLSCAASGFTFSSYNMNWVRQAPGKGLEWVSSISSSSSYIYYADSVKGRFTISRDNAKNSLYLQMNSLRAEDTAVYYCARDNWNYSFDYWGQGTLVTVSS
VL: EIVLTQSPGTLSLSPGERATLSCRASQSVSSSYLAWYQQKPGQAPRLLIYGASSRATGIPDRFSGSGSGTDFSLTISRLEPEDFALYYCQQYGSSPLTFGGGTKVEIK
notes: Hybridoma antibody, human variable domains, mouse IgG2 Fc (prefix H2M)
B2: H1M6492N (antibody, V domains shown)
VH: EVQLVESGGGLVKPGGSLRVSCVASGFTFSNAWMTWVRQTPGKGLECVGRIKSRTDGGTVDYVAPVKGRFTISRDDSKNTLYLQMNSLKAEDTAVYYCRADLDYWGQGTLVTVSS
VL: DVVMTQSPLSLPVSLGQPASISCRSSQSLVHSDGITYLNWFQQRPGQSPRRLIYKISNRDSGVPDRFSGSGSGTDFTLKFSRVEAEDVGVYFCMQGTHWPYTFGQGTKLEIK
notes: Hybridoma antibody, human variable domains, mouse constant domains; prefix H1M marks the Fc region (isotype not spelled out)
B3: H1M6494N (antibody, V domains shown)
VH: B2 VH
VL: B2 VL
notes: as for B2
B4: H2M6495N (antibody, V domains shown)
VH: QVQLVESGGGVVQPGRSLRLSCAASGFTFRSYGMHWVRQAPGKGLEWVAVIWYDGSDKYYADSVKGRFTISRDNSKNTLYLQMNSLRAEDTAVYFCAKDEYKTRGGYFDYWGQGTLVTVSS
VL: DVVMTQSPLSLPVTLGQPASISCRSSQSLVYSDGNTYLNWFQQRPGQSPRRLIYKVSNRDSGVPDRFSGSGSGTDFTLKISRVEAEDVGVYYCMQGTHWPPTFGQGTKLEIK
notes: as for B1
B5: H4H6334P (antibody, V domains shown)
VH: EVQLVESGGGLVKPGGSLRLSCAVSGFTFSIDWMIWVRQAPGTGLEWVGRIKRKTDGGTTDYAAPVKGRFTISRDDSKNTLYLQMNSLKTEDTAIYYCATGGFERVGQGTLVTVSS
VL: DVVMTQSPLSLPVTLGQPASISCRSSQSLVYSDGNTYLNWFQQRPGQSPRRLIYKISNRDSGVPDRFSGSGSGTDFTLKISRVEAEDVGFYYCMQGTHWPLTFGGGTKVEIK
notes: Human IgG4 Fc (prefix H4H)
B6: H4H6328P (antibody, V domains shown)
VH: B4 VH with R30S, F95Y, K98R, E100G, K102G, T103S, G106N
VL: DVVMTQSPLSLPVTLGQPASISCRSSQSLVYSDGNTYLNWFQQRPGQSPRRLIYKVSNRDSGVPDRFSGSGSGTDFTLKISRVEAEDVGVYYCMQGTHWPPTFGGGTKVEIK
notes: Human IgG4 Fc (prefix H4H)
B7: H4H6495N (antibody, V domains shown)
VH: B4 VH
VL: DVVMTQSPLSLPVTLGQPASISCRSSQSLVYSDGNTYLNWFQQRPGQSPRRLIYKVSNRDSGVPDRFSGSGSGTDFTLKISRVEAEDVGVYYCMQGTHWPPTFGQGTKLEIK
notes: Human IgG4 Fc version of 6495N; also called 6495N (human IgG4 format)

Target: T1, human big-endothelin-1 (big-ET-1) (human)
T1 peptide: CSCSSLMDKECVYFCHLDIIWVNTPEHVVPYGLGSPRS
Test: cell-based or functional assay

Binder | Blocking IC50(M), 10 nM hBig-ET-1 + 3 nM hECE1 [Trial 1]; 293/ETaR/NFAT-Luc luciferase
B1 | 7.6e-09 M
B2 | 1.5e-09 M
B3 | 1.5e-09 M
B4 | 4.3e-09 M

Target: T1, human big-endothelin-1 (big-ET-1)
Test: cell-based or functional assay
Remark: another data set of the same source

Binder | Blocking IC50(M), 10 nM hBig-ET-1 + 3 nM hECE1; 293/ETaR/NFAT-Luc luciferase
B5 | 6.8e-10 M
B6 | > 1e-07 M
B7 | 1.33e-08 M

Target: T2, mouse big-ET-1 (mouse)
T2 peptide: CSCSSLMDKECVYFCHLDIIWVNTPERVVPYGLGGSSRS
Test: cell-based or functional assay

Binder | Blocking IC50(M), 20 nM mBig-ET-1 + 5 nM mECE1; 293/ETaR/NFAT-Luc luciferase
B5 | > 1e-07 M
B6 | > 1e-07 M

Target: T1, human big-endothelin-1 (big-ET-1)
Test: SPR (Biacore T200), 37 C, mAb capture, peptide analyte
Method: (§1) Measurements were conducted on a T200 Biacore instrument (Biacore Life Sciences division of GE Healthcare, Piscataway, N.J.). […] Peptide binding was monitored for 3 min while dissociation of mAb-bound peptide was monitored for 4 min in HBST running buffer (0.01 M HEPES pH 7.4, 0.15 M NaCl, 3 mM EDTA, 0.005% v/v Surfactant P20). Kinetic association (kₐ) and dissociation (kd) rate constants were determined by processing and fitting the data to a 1:1 binding model using Scrubber 2.0 curve fitting software.

Binder | Kd
B5 | < 0.05 nM
B6 | < 0.05 nM
B4 | < 0.05 nM

Target: T3, small-ET-1 (endothelin-1) (human)
T3 construct: 21 amino acid peptide, same for mouse and human; also called human small-ET-1; EDN-1
T3 peptide: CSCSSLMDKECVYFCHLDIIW
Test: as above
Method: as §1

Binder | binding result
B1 | no binding
B2 | no binding
B3 | no binding
B6 | no binding
B4 | no binding

Target: T1, human big-endothelin-1 (big-ET-1)
Test: as above
Remark: another data set of the same source
Method: as §1

Binder | Kd | T½ | koff | kon
B5 | 0.043 nM | 133 min | 8.68e-05 s⁻¹ | 2.02e+06 M⁻¹ s⁻¹
B1 | 239 nM | 0.1 min | 0.0898 s⁻¹ | 380000 M⁻¹ s⁻¹
B2 | 6.46 nM | 7 min | 0.0016 s⁻¹ | 248000 M⁻¹ s⁻¹
B3 | 7.07 nM | 7 min | 0.00169 s⁻¹ | 239000 M⁻¹ s⁻¹
B6 | ≤ 0.00634 nM | 11600 min | ≤ 1e-06 s⁻¹ | 158000 M⁻¹ s⁻¹
B7 | – | 0.3 min | 0.0399 s⁻¹ | 606000 M⁻¹ s⁻¹
B4 | – | 11600 min | ≤ 1e-06 s⁻¹ | 117000 M⁻¹ s⁻¹

Target: T2, mouse big-ET-1
Test: as above
Method: as §1

Binder | Kd | T½ | koff | kon
B5 | 58 nM | 25 min | 0.000456 s⁻¹ | 7900 M⁻¹ s⁻¹
B1 | 160 nM | 0.1 min | 0.135 s⁻¹ | 830000 M⁻¹ s⁻¹

Target: T1, human big-endothelin-1 (big-ET-1)
Test: SPR (Biacore T200), 37 C, mAb capture, peptide analyte; human IgG4 format (H4H), captured on mouse anti-human Fc surface; Table 3
Method: as §1

Binder | Kd
B7 | 65.9 nM

Target: T1, human big-endothelin-1 (big-ET-1)
Test: SPR (Biacore T200), 37 C, mAb capture, peptide analyte; hybridoma mAb (H2M, mouse Fc), captured on rabbit anti-mouse surface; Table 2
Method: as §1

Binder | Kd
B4 | ≤ 8.53 pM
